According to patent publication US20170089914A1 (Merck Sharp & Dohme, published 2017):

B1: A30514 Fab antibody (Fab-SASA secreted to culture medium) (Fab, V domains shown)
VH: QEQLVESGGRLVTPGTPLTLTCTASGFSLGSDFMSWVRQAPGKGLEWIGYIDPRSDIPYYASWAKGRFTISKTSTTVDLKITSPTTEDTATYFCARDLNAGYFNGIFYIWGPGTLVTVSS
VL: ELVMTQTPSSVSAAVGDTVTINCQASETVATLLAWYQQKPGQPPKLLIYGASNLESGVPSRFRGSGSGTEFTLTISGMKAEDAATYYCQYGYISTGSNTFGAGTNVEIK
notes: Rabbit variable domains from a Fab phage library; Tested as Fab-SASA expressed from the pFASEBA vector and captured on BSA via SASA
B2: A30523 Fab antibody (Fab-SASA secreted to culture medium) (Fab, V domains shown)
VH: B1 VH
VL: ELDMTQTPSSTSEPVGGTVTINCQASQTISSYLSWYQQKPGHPPKLLIYDASDLASGVPSRFSGSRSGTQFTLTISGVQCDDAATYYCLGVYDYRSDDGAAFGGGTELEIL
notes: as for B1
B3: A30633 Fab antibody (Fab-SASA secreted to culture medium) (Fab, V domains shown)
VH: QSLEESGGRLVTPGTPLTLTCTVSGFSLSTNDMNWVRQAPGKGLEWIGVIYSDDTPDYATWAKGRFTISRTSTTVDLKITSPTTEDTATYFCARGHYDSAVYAYALNIWGPGTLVTVSS
VL: ELVMTQTPSSVSAAVGGTVTITCQASQSLSNLLAWYQQKPGQPPKLLIYGASNLESGVPSRFRGSGSGTDFTLTISGMKAEDAATYYCQGGHYSGLTFGNGTNVEIK
notes: as for B1

These binders were tested against pembrolizumab F(ab')2 protein (assay: SPR (BIAcore T200), Fab-SASA captured on BSA chip, pembrolizumab F(ab')2 as analyte, 1:1 fit).
Chain of pembrolizumab F(ab')2 protein (chain, as listed by the source, chain 1 of 2): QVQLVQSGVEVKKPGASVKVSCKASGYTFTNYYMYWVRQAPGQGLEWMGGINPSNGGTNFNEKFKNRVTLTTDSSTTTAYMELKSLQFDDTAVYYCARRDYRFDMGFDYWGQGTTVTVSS
Chain of pembrolizumab F(ab')2 protein (chain, as listed by the source, chain 2 of 2): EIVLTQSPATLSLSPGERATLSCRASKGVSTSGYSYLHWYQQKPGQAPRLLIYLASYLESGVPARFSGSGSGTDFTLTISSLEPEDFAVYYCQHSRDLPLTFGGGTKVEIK

In order of rising koff:
1. B1  6.5e-05 s⁻¹
2. B2  0.00034 s⁻¹
3. B3  0.0012 s⁻¹
